The values that follow come from publication PMC5919072.

Common to all, as to test: SEC-MALS; static light scattering (MiniDAWN TREOS, three angles) inline with size exclusion on Superdex S75 10/300; 100 mM Na-phosphate pH 7.4, 400 mM NaCl; PfMDH-WT injected at 1.0 mg/ml
Test [1] has as its target PfMDH-E18Q, His6-tagged (Plasmodium falciparum).
Test [2] deals with PfMDH-E18W, His6-tagged (Plasmodium falciparum).
Test [3] deals with PfMDH-V190W, His6-tagged (Plasmodium falciparum).
Test [4] deals with Wild-type malate dehydrogenase from Plasmodium falciparum (PfMDH-WT), His6-tagged (Plasmodium falciparum).

The substance PfMDH-E18Q, His6-tagged (enzyme) displayed a stoichiometry N in test [1] of 4.
PfMDH-E18W, His6-tagged (enzyme): the stoichiometry N in test [2] came out at 2.
Substance PfMDH-V190W, His6-tagged (enzyme) had a stoichiometry N in test [3] of 2.
In turn, “Wild-type malate dehydrogenase from Plasmodium falciparum (PfMDH-WT), His6-tagged (enzyme)” had a stoichiometry N in test [4] of 4.
